Sequences and labels used below:
T1: MA
T1 chain: MAKLDEESILKQK

T2: IA peptide IAKLDEESILKQK (XAKLDEESILKQK, X = I)
T2 construct: Immobilized on the biolayer interferometry sensor
T2 peptide: IAKLDEESILKQK

T3: VA peptide VAKLDEESILKQK (XAKLDEESILKQK, X = V)
T3 construct: Immobilized on the biolayer interferometry sensor
T3 peptide: VAKLDEESILKQK

T4: LA peptide LAKLDEESILKQK (XAKLDEESILKQK, X = L)
T4 construct: Immobilized on the biolayer interferometry sensor
T4 peptide: LAKLDEESILKQK

T5: F peptide FAKLDEESILKQK (XAKLDEESILKQK, X = F)
T5 construct: Immobilized on the biolayer interferometry sensor
T5 peptide: FAKLDEESILKQK

T6: Kluyveromyces lactis UBR-box domain (PS528) (Kluyveromyces lactis, UniProt O60014 101-182)
T6 construct: UBR-streptavidin complex in fluorescence polarization
T6 sequence: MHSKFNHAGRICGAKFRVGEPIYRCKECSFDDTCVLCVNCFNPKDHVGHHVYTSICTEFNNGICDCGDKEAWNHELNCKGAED

T7: Mus musculus UBR-box domain (PS535) (Mus musculus, UniProt Q6WKZ8 98-168)
T7 sequence: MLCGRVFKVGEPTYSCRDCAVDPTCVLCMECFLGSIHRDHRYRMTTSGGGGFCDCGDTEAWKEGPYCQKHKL

T8: Saccharomyces cerevisiae UBR-box domain (PS538) (Saccharomyces cerevisiae, UniProt P19812 113-194)
T8 sequence: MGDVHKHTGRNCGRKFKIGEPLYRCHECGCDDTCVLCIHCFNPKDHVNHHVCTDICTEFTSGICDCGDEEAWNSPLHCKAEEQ

T9: Y peptide YAKLDEESILKQK (XAKLDEESILKQK, X = Y)
T9 construct: Immobilized on the biolayer interferometry sensor
T9 peptide: YAKLDEESILKQK

T10: FITC-labeled LA peptide LAKLDEESILKQK-FITC
T10 peptide: LAKLDEESILKQK-{FITC′}

T11: FITC-labeled IA peptide IAKLDEESILKQK-FITC
T11 peptide: IAKLDEESILKQK-{FITC′}

T12: FITC-labeled YA peptide YAKLDEESILKQK-FITC
T12 peptide: YAKLDEESILKQK-{FITC′}

T13: FITC-labeled VA peptide VAKLDEESILKQK-FITC
T13 peptide: VAKLDEESILKQK-{FITC′}

T14: FITC-labeled FA peptide FAKLDEESILKQK-FITC
T14 peptide: FAKLDEESILKQK-{FITC′}

B1: Agrobacterium tumifaciens ClpS1 (atClpS1) (other)
chain: MIAEPICMQGEGDGEDGGTNRGTSVITRVKPKTKRPNLYRVLLLNDDYTPMEFVIHILERFFQKDREAATRIMLHVHQHGVGECGVFTYEVAETKVSQVMDFARQHQHPLQCVMEKK
notes: also called A. tumefaciens ClpS1; atClpS1 (WT)
B2: PS545 (other)
chain: MSEPMTLPAIPQPRLKERTQRQPPYNVILLNDDDHSYEYVIAMLQVLFGYPREKGYQMAKEVDSTGRVILLTTTREHAELKQEQIHAFGPDPLMARCQGSMTAVIEPAV
B3: RA peptide RAKLDEESILKQK (XAKLDEESILKQK, X = R) (peptide)
peptide: RAKLDEESILKQK
notes: Biolayer interferometry single-point screen of UBR-box homologs
B4: PS371 (other)
chain: MATETIERPRTRDPGSGLGGHWLVIVLNDDHNTFDHVAKTLARVIPGVTVDDGYRFADQIHQRGQAIVWRGPKEPAEHYWEQLQDAGLSMAPLERH
B5: PS551 (other)
chain: MPSAAPAKPKTKRQSRTQGMPPYNVVLLDDDDHTYGYVIEMLNKVFGHPPEKGFELATEVDKNGRVIVMTTNLEVAELKRDEVHAFGPDPLMPRSKGSMSAVVERAG
B6: KA peptide KAKLDEESILKQK (XAKLDEESILKQK, X = K) (peptide)
peptide: KAKLDEESILKQK
notes: as for B3
B7: Brachionus plicatilis UBR-box domain (PS505) (other)
chain: MVCGRVFKSGEPSYFCRECGTDPTCVLCSICFRHSKHRYHKYVMMTSGGGGYCDCGDPEAWKSDPCCELHMP

Primed or numbered codes have the meaning given here. Ends that are not written are not given here. FITC′ = not defined here

The target in test [1] is LF peptide (N-terminal LF; rest of sequence not given). Briefly: binder-on-chip single-molecule assay. Details: unit not given here.
The target of test [2] is T15, WA peptide (N-terminal tryptophan, penultimate alanine; rest of sequence not given).
T15 construct: they may differ; also called tryptophan peptide
Kind of test: binder-on-chip single-molecule assay. Details: unit not given here.

Test [3] deals with T16, FA peptide (N-terminal phenylalanine, penultimate alanine; rest of sequence not given).
T16 construct: they may differ; Dye- or FITC-labelled in some assays; also called phenylalanine peptide; N-terminal FA peptide
Briefly: binder-on-chip single-molecule assay. More on the design: unit not given here.

In test [4] the target is T17, YA peptide (N-terminal tyrosine, penultimate alanine; rest of sequence not given).
T17 construct: they may differ; also called tyrosine peptide
Briefly: binder-on-chip single-molecule assay. Details: unit not given here.

The next test has as its target T1, MA. Kind of test: biolayer interferometry, response against 1/kdis.
The target in test [5] is T2, IA peptide IAKLDEESILKQK …. Kind of test: biolayer interferometry, response against 1/kdis. For orientation: In BLI a coated tip is dipped into the sample, and binding shifts an interference pattern.
The target in test [6] is T3, VA peptide VAKLDEESILKQK …. Kind of test: biolayer interferometry, response against 1/kdis.
Test [7] addresses T4, LA peptide LAKLDEESILKQK …. Briefly: biolayer interferometry as in Example 12.
Test [8] concerns the target T2, IA peptide IAKLDEESILKQK …. Briefly: biolayer interferometry as in Example 12.
Test [9] has as its target T3, VA peptide VAKLDEESILKQK …. Kind of test: biolayer interferometry as in Example 12.
The target of test [10] is T5, F peptide FAKLDEESILKQK (XAKLDEESILKQK, …). Kind of test: biolayer interferometry as in Example 12.
Test [11] concerns the target T6, Kluyveromyces lactis UBR-box domain …. Briefly: biolayer interferometry single-point screen, 30 C.
Test [12] addresses T7, Mus musculus UBR-box domain (PS535). Briefly: biolayer interferometry single-point screen, 30 C.
The target in test [13] is T8, Saccharomyces cerevisiae UBR-box domain …. Kind of test: biolayer interferometry single-point screen, 30 C.
In test [14] the target is T9, Y peptide YAKLDEESILKQK (XAKLDEESILKQK, …). Kind of test: BLI heatmap.
Test [15] addresses T4, LA peptide LAKLDEESILKQK …. Kind of test: BLI heatmap.
Test [16] deals with T5, F peptide FAKLDEESILKQK (XAKLDEESILKQK, …). Briefly: BLI heatmap.
The target of test [17] is T10, FITC-labeled LA peptide …. Briefly: fluorescence polarization, single point.
In test [18] the target is T11, FITC-labeled IA peptide …. Kind of test: fluorescence polarization, single point. In general terms: Polarisation of emitted light reports the rotation of a fluorescent probe.
Test [19] concerns the target T12, FITC-labeled YA peptide …. Briefly: fluorescence polarization, single point.
The target of test [20] is T13, FITC-labeled VA peptide …. Briefly: fluorescence polarization, single point.
Test [21] addresses T14, FITC-labeled FA peptide …. Kind of test: fluorescence polarization, single point.
For test [22], the target named is T4, LA peptide LAKLDEESILKQK …. Kind of test: biolayer interferometry as in Example 12.
Test [23] addresses T2, IA peptide IAKLDEESILKQK …. Briefly: biolayer interferometry as in Example 12.
Test [24] concerns the target T3, VA peptide VAKLDEESILKQK …. Kind of test: biolayer interferometry as in Example 12.
Test [25] deals with T5, F peptide FAKLDEESILKQK (XAKLDEESILKQK, …). Kind of test: biolayer interferometry as in Example 12.
For test [26], the target named is B3. Briefly: BLI heatmap, single-point screen.

On to B1, for which the Mean pulse width is 0.3 in [1], 0.39 in test [2], 0.66 in test [3] and 0.77 in test [4]. The “Median PW” value in test [1] was 0.18; in [2], 0.24; in test [3], 0.36; in test [4], 0.4. Moreover, the binding result (with MA; in test [5]; in [6]) was “no binding” each time.

As to B2, the binding result in [7] is listed as “binds”; in [8], “binds”; in [9], “binds”; in test [10], “no binding”.

For B3, the binding result in [11], in [12] and in test [13] was “binds” in each case.

Regarding B4, the binding result is given as “binds” in [14]; “binds” in [15]; “binds” in test [16]; “binds” in test [17]; “no binding” in test [18]; “binds” in [19]. In addition, the binding result is recorded as “no binding” in [20] and “binds” in test [21].

For the molecule B5, the binding result is given as “binds” in [22], “binds” in test [23], “binds” in test [24] and “no binding” in test [25].

Take B6: the binding result in test [11], in test [12] and in test [13] was “binds” in each case.

Take B7: the binding result in test [26] was “binds”.

The record behind these values is patent US20210364527A1 (QUANTUM SI, published 2021).
